Reference: CN117820472A (VAZYME MEDICAL CO LTD; HUNAN NOVAZYME MEDICAL TECH CO LTD, dated 2024)
Ends that are not written are not given here.

Target: T1, Tau 181多肽 (also: biotin coupling for SA coating, place not given here)
T1 peptide: CPPAPKTPP
Assay: indirect ELISA, cell supernatants on SA+biotin peptide plates (m1 as a member of the 80 antibodies)

- binding result: no binding
B1: Anti-p-Tau 181-rRmab-1 (antibody, V domains shown)
VH: CQSVEESGGRLVTPGTPLTLTCTVSGFSLSIYAMSWVRQAPGKGLEYIGYIVSSGSTYYASWAKGRVTISKTSSTTVDLKITSPATEDTATYFCARGSITGFTRLELWGQGTLVTVSS
VL: DIVMTQTPASVEAAVGGTVTIKCQASESISSGLAWYQQKPGQPPKLLIYGASTLASGVPSRFKGSRSGTEYTLTISDLECADAATYYCQSYYYSSGSSLLYGFGGGTEVVVK
notes: Recombinant rabbit monoclonal antibody from single B cell cloning, expressed in HEK293 cells and purified on protein A. Only the variable domains are printed
